{"source": "paper PMC3814354", "about": "“Interaction of bacterial fatty-acid-displaced regulators with DNA is interrupted by tyrosine phosphorylation in the helix-turn-helix domain”", "conditions_in_all_cases": "protein: recombinant; tags: N-terminal 6xHis (pQE-30); chain copies: 2; label: none (ethidium bromide stain); blunt", "key": {"[1]": {"target": "T1, FatR wild type (Bacillus subtilis, UniProt O08335 1-194)", "T1 sequence": "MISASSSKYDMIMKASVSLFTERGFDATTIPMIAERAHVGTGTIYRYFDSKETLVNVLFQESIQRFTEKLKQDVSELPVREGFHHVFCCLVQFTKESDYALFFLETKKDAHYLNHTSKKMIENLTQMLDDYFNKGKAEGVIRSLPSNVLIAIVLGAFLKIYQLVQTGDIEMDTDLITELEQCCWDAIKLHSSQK", "test": "EMSA; 120-1920 pmol protein, 30 pmol DNA (protein:DNA 4:1 to 64:1); EMSA: 100 mM Tris-HCl pH 7.5, 15 min at 37 C, 8% native PAGE in Tris-glycine (2.5 mM Tris, 192 mM glycine), ethidium bromide stain"}, "[2]": {"target": "T2, FatR Y45F (Bacillus subtilis, UniProt O08335 1-194, Y45F)", "T2 sequence": "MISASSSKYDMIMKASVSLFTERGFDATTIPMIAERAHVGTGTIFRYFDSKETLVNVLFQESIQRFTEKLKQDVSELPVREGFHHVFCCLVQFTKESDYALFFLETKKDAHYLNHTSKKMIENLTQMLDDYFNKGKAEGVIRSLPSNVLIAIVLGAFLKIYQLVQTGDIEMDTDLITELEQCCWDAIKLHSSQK", "test": "EMSA; 960 and 1920 pmol protein, 30 pmol DNA (up to 64:1); EMSA: 100 mM Tris-HCl pH 7.5, 15 min at 37 C, 8% native PAGE in Tris-glycine (2.5 mM Tris, 192 mM glycine), ethidium bromide stain"}, "[3]": {"target": "T3, FatR Y45E (Bacillus subtilis, UniProt O08335 1-194, Y45E)", "T3 sequence": "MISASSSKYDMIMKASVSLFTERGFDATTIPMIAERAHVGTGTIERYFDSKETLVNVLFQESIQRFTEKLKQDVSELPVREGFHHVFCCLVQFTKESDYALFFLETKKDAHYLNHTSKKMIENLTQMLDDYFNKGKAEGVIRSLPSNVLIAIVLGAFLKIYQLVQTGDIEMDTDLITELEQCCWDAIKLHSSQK", "test": "EMSA; 960 and 1920 pmol protein, 30 pmol DNA (up to 64:1); EMSA: 100 mM Tris-HCl pH 7.5, 15 min at 37 C, 8% native PAGE in Tris-glycine (2.5 mM Tris, 192 mM glycine), ethidium bromide stain"}}, "data": [{"binder": "fatR operator (BsOP1/BsOP2) (dsDNA) DNA 1: TACGGAATGAATATTCATTCCTTT DNA 2: AAAGGAATGAATATTCATTCCGTA", "values": [{"measurement": "binding result", "setting": "[1]", "result": "binds"}, {"measurement": "binding result", "setting": "[2]", "result": "no binding"}, {"measurement": "binding result", "setting": "[3]", "result": "no binding"}]}]}
